Test results: US20250075006A1 (SHANDONG SIMCERE BIOPHARMACEUTICAL, published 2025)

Assays:
[1] = molecular target: T1, human GUCY2C protein, full length, on cells (human, UniProt P25092 24-1073); assay: FACS on 293T-hGUCY2C cells, MFI
T1 construct: whole, on cells; also called endogenous tumor cells HT55
Procedure: (§1) Then a complete medium was added to stop the digestion, and the cells were blown into a single cell suspension. After counting, the cells were centrifuged, and the cell pellet was resuspended to 2×10⁶ cells/mL in an FACS buffer (PBS+2% fetal bovine serum), and added to a 96-well FACS reaction plate at 100 μL/well. The plate was centrifuged, and the supernatant was discarded. An antibody sample to be tested (diluted in a 3-fold gradient from a starting concentration of 100 nM) was added at 50 μL/well and uniformly mixed with the cells, and the mixture was incubated at 4° C. for 1 h. […] The results were tested and analyzed by FACS (FACS Canto™, purchased from BD) after the plate was centrifuged and washed 3 times with a PBS buffer and resuspended with 100 μL of PBS. Data analysis was performed by software (FlowJo) to obtain the mean fluorescence intensity (MFI) of the cells. Then, analysis was performed by software (GraphPad Prism8), data were fitted, and EC50 values were calculated.

[2] = molecular target: T1, human GUCY2C protein, full length, on …; assay: FACS on 293T-hGUCY2C cells, MFI; remark: listed apart in the source
Procedure: as §1, with “5-fold” for “3-fold”, “calculated. As shown in A-C in FIG. 14, PF1608-hIgG1 binds strongly to GUCY2C at the protein level, but weakly at the cellular level. The humanized antibodies of the present application are all capable of binding effectively to recombinant cells expressing human GUCY2C protein and substantially maintain the equivalent binding ability of the recombinant antibodies.” for “calculated.”

[3] = molecular target: T1, human GUCY2C protein, full length, on …; assay: FACS on 293T-hGUCY2C cells, MFI; remark: listed apart in the source
Procedure: as §1, with “5-fold” for “3-fold”, “calculated. As shown in A-C in FIG. 14, PF1608-hIgG1 binds strongly to GUCY2C at the protein level, but weakly at the cellular level. The humanized antibodies of the present application are all capable of binding effectively to recombinant cells expressing human GUCY2C protein and substantially maintain the equivalent binding ability of the recombinant antibodies.” for “calculated.”

[4] = molecular target: T1, human GUCY2C protein, full length, on …; assay: FACS on 293T-hGUCY2C cells, MFI; remark: listed apart in the source
Procedure: as §1, with “5-fold” for “3-fold”, “calculated. As shown in A-C in FIG. 14, PF1608-hIgG1 binds strongly to GUCY2C at the protein level, but weakly at the cellular level. The humanized antibodies of the present application are all capable of binding effectively to recombinant cells expressing human GUCY2C protein and substantially maintain the equivalent binding ability of the recombinant antibodies.” for “calculated.”

[5] = molecular target: T1, human GUCY2C protein, full length, on …; assay: FACS on HT55 tumor cells (endogenous GUCY2C), MFI
Procedure: as §1
The binding of the recombinant antibody to the endogenous tumor cell HT55 was detected in the same manner.

[6] = molecular target: T1, human GUCY2C protein, full length, on …; assay: FACS on HT55 tumor cells (endogenous GUCY2C), MFI; remark: listed apart in the source
[7] = molecular target: T1, human GUCY2C protein, full length, on …; assay: FACS on HT55 tumor cells (endogenous GUCY2C), MFI; remark: listed apart in the source
[8] = molecular target: T1, human GUCY2C protein, full length, on …; assay: FACS on HT55 tumor cells (endogenous GUCY2C), MFI; remark: listed apart in the source

T1 sequence (P25092 24-1073): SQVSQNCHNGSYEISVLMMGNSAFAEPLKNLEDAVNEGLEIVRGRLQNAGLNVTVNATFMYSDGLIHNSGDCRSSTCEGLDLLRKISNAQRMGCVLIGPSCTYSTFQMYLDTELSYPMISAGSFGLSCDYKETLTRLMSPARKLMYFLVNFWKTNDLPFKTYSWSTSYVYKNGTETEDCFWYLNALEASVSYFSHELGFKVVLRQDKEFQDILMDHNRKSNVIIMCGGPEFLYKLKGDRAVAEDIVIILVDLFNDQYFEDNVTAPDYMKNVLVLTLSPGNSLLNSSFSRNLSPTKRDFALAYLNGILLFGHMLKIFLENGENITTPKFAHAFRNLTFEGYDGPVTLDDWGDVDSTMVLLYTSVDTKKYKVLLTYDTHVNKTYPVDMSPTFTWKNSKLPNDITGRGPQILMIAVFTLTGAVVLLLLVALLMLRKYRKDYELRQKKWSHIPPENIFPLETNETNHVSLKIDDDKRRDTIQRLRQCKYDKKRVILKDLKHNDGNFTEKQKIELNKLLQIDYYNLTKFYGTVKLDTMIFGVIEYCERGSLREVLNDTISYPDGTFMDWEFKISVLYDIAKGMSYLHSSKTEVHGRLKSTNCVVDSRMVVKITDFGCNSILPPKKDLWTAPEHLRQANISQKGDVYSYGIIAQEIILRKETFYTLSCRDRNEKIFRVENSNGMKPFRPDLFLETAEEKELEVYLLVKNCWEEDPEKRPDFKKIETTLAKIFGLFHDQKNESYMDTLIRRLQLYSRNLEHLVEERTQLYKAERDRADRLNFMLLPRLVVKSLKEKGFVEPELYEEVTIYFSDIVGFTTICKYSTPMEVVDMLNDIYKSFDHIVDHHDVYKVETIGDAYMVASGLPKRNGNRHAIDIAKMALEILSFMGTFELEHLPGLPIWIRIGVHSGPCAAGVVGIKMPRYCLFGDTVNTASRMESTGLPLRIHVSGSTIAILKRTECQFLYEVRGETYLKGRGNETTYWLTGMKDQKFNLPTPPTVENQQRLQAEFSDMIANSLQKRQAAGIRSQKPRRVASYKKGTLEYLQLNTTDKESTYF

EC50 (read off the curve) [1]: ~0.9 nM
EC50 (read off the curve) [2]: ~1 nM
EC50 (read off the curve) [3]: ~1 nM
EC50 (read off the curve) [4]: ~1 nM
EC50 (read off the curve) [5]: ~0.3 nM
EC50 (read off the curve) [6]: ~0.3 nM
EC50 (read off the curve) [7]: ~0.3 nM
EC50 (read off the curve) [8]: ~0.3 nM
B1: 5F9-hIgG1 (antibody, V domains shown)
VH: QVQLQQWGAGLLKPSETLSLTCAVFGGSFSGYYWSWIRQPPGKGLEWIGEINHRGNTNDNPSLKSRVTISVDTSKNQFALKLSSVTAADTAVYYCARERGYTYGNFDHWGQGTLVTVSS
VL: EIVMTQSPATLSVSPGERATLSCRASQSVSRNLAWYQQKPGQAPRLLIYGASTRATGIPARFSGSGSGTEFTLTIGSLQSEDFAVYYCQQYKTWPRTFGQGTNVEIKR
notes: also called positive control antibody
